This note sets out measurements from patent publication US12667625B2, “Antibody-drug conjucates and their uses for the treatment of cancer” (INATHERYS, priority 2018, dated 2026).

The subject of assay [1] is THP-1 cell line (CD71+). Description: Comparative binding on THP-1 cell line by flow cytometry. The note with it: biotinylated antibodies, serial dilutions 5 to 0.05 ug/mL, streptavidin Alexa F488. The protocol: (§1) Serial dilutions (5 to 0.05 ug/mL) of both biotinylated antibodies (antibody A24 and antibody of ADC INA01-SDV1) were performed and incubated on THP-1 and MEC-1 cell lines. The binding of the diluted antibodies was detected by Flow cytometry using streptavidin Alexa F488 (available at ThermoFisher scientific).

The test system of assay [2] is MEC-1 cell line (CD71+). Description: Comparative binding on MEC-1 cell line by flow cytometry. The note with it: biotinylated antibodies, serial dilutions 5 to 0.05 ug/mL, streptavidin Alexa F488. The protocol:
as §1

B1: A24: murine monoclonal anti-human TfR antibody as disclosed in WO 2005/111082 (antibody, listed as Homo sapiens, V domains shown)
VH: QIQLVQSGPELKKPGETVKISCKASGYTFTNQGMNWVKQAPGKGLKWMGWINTYTGEPINADDFKGRFAISLETSASTAYLQINNLKNEDMATYFCVREGWDSMDYWGQGTSVTVSS
VL: QIVLTQSPAIMSASPGEKVTITCSASSSVNYMHWFQQKPGTSPKLWIYSTSNLASGVPARFSGSGSGTSYSLTISRMEAEDAATYYCQQRSSYPLTFGAGTKLELKR
Turning to B1, the “affinity to the CD71+ cell line (binding)” value in assay [1] and in assay [2] was “identical affinity” throughout.
